In general, EC50 refers to the concentration that produces a half-maximal response. A higher EC50 goes with lower potency in that assay.

To fix the notation:
T1: Placenta Growth Factor (PlGF), human (human, UniProt P49763 21-149)
T1 chain: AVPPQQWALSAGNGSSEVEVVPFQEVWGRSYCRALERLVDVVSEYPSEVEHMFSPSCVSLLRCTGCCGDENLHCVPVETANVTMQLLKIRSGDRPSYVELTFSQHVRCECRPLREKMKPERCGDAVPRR

B1: HC 4/SLC 4 (antibody)
chain 1: GQGTLVTVSSASTKQPVLHQPPAMSSALGTTIRLTCTLRNDHDIGVYSVYWYQQRPGHPPRFLLRYFSQSDKSQGPQVPPRFSGSKDVARNRGYLSISELQPEDEAMYYCAMGARSRCWPRGFQSKHNSVTHVFGSGTQLTVLSQPKATPSVTLFPPSSEELQANKATLVCLMNDFYPGILTVTWKADGTPITQGVEMTTPSKQSNNKYAASSYLSLTPEQWRSRRSYSCQVMHEGSTVEKTVAPAECS
chain 2: MSWAPVLLMLFVYCTGCGPQPVLHQPPAMSSALGTTIRLTCTLRNDHDIGVYSVYWYQQRPGHPPRFLLRYFSQSDKSQGPQVPPRFSGSKDVARNRGYLSISVTHVFGSGTQLTVLSQPKQVQLVQ
B2: HC 4/SLC 2 (antibody)
chain 1: B1 chain 1
chain 2: MSWAPVLLMLFVYCTGCGPQPVLHQPPAMSSALGTTIRLTCTLRNDHDIGVYSVYWYQQRPGHPPRFLLRYFSQSDKSQGPQVPPRFSGSKDVARNRGYLSISVTHVFGSGTQLTVLSQQVQLVQ
B3: HC 6/SLC 6 (antibody)
chain 1: GQGTLVTVSSASTKGPQPVLHQPPAMSSALGTTIRLTCTLRNDHDIGVYSVYWYQQRPGHPPRFLLRYFSQSDKSQGPQVPPRFSGSKDVARNRGYLSISELQPEDEAMYYCAMGARSRCWPRGFQSKHNSVTHVFGSGTQLTVLSQPKATPSVTLFPPSSEELQANKATLVCLMNDFYPGILTVTWKADGTPITQGVEMTTPSKQSNNKYAASSYLSLTPEQWRSRRSYSCQVMHEGSTVEKTVAPAECS
chain 2: MSWAPVLLMLFVYCTGCGPQPVLHQPPAMSSALGTTIRLTCTLRNDHDIGVYSVYWYQQRPGHPPRFLLRYFSQSDKSQGPQVPPRFSGSKDVARNRGYLSISVTHVFGSGTQLTVLSQPKATQVQLVQ
B4: HC 8/SLC 6 (antibody)
chain 1: GQGTLVTVSSASTKGPSVQPVLHQPPAMSSALGTTIRLTCTLRNDHDIGVYSVYWYQQRPGHPPRFLLRYFSQSDKSQGPQVPPRFSGSKDVARNRGYLSISELQPEDEAMYYCAMGARSRCWPRGFQSKHNSVTHVFGSGTQLTVLSQPKATPSVTLFPPSSEELQANKATLVCLMNDFYPGILTVTWKADGTPITQGVEMTTPSKQSNNKYAASSYLSLTPEQWRSRRSYSCQVMHEGSTVEKTVAPAECS
chain 2: B3 chain 2
B5: HC 3/SLC 3 (antibody)
chain 1: GQGTLVTVSSASTQPVLHQPPAMSSALGTTIRLTCTLRNDHDIGVYSVYWYQQRPGHPPRFLLRYFSQSDKSQGPQVPPRFSGSKDVARNRGYLSISELQPEDEAMYYCAMGARSRCWPRGFQSKHNSVTHVFGSGTQLTVLSQPKATPSVTLFPPSSEELQANKATLVCLMNDFYPGILTVTWKADGTPITQGVEMTTPSKQSNNKYAASSYLSLTPEQWRSRRSYSCQVMHEGSTVEKTVAPAECS
chain 2: MSWAPVLLMLFVYCTGCGPQPVLHQPPAMSSALGTTIRLTCTLRNDHDIGVYSVYWYQQRPGHPPRFLLRYFSQSDKSQGPQVPPRFSGSKDVARNRGYLSISVTHVFGSGTQLTVLSQPQVQLVQ
B6: HC 8/SLC 3 (antibody)
chain 1: B4 chain 1
chain 2: B5 chain 2
B7: HC 3/SLC 2 (antibody)
chain 1: B5 chain 1
chain 2: B2 chain 2
B8: HC 6/SLC 3 (antibody)
chain 1: B3 chain 1
chain 2: B5 chain 2
B9: HC 10/SLC 7 (antibody)
chain 1: GQGTLVTVSSASTKGPSVFPQPVLHQPPAMSSALGTTIRLTCTLRNDHDIGVYSVYWYQQRPGHPPRFLLRYFSQSDKSQGPQVPPRFSGSKDVARNRGYLSISELQPEDEAMYYCAMGARSRCWPRGFQSKHNSVTHVFGSGTQLTVLSQPKATPSVTLFPPSSEELQANKATLVCLMNDFYPGILTVTWKADGTPITQGVEMTTPSKQSNNKYAASSYLSLTPEQWRSRRSYSCQVMHEGSTVEKTVAPAECS
chain 2: MSWAPVLLMLFVYCTGCGPQPVLHQPPAMSSALGTTIRLTCTLRNDHDIGVYSVYWYQQRPGHPPRFLLRYFSQSDKSQGPQVPPRFSGSKDVARNRGYLSISVTHVFGSGTQLTVLSQPKATPQVQLVQ
B10: HC 10/SLC 15 (antibody)
chain 1: B9 chain 1
chain 2: MSWAPVLLMLFVYCTGCGPQPVLHQPPAMSSALGTTIRLTCTLRNDHDIGVYSVYWYQQRPGHPPRFLLRYFSQSDKSQGPQVPPRFSGSKDVARNRGYLSISVTHVFGSGTQLTVLSQPKATPSVTGGGGSQVQLVQ
B11: HC 10/SLC 5 (antibody)
chain 1: B9 chain 1
chain 2: MSWAPVLLMLFVYCTGCGPQPVLHQPPAMSSALGTTIRLTCTLRNDHDIGVYSVYWYQQRPGHPPRFLLRYFSQSDKSQGPQVPPRFSGSKDVARNRGYLSISVTHVFGSGTQLTVLSQPKAQVQLVQ
B12: HC 8/SLC 7 (antibody)
chain 1: B4 chain 1
chain 2: B9 chain 2
B13: HC 2/SLC 5 (antibody)
chain 1: GQGTLVTVSSASQPVLHQPPAMSSALGTTIRLTCTLRNDHDIGVYSVYWYQQRPGHPPRFLLRYFSQSDKSQGPQVPPRFSGSKDVARNRGYLSISELQPEDEAMYYCAMGARSRCWPRGFQSKHNSVTHVFGSGTQLTVLSQPKATPSVTLFPPSSEELQANKATLVCLMNDFYPGILTVTWKADGTPITQGVEMTTPSKQSNNKYAASSYLSLTPEQWRSRRSYSCQVMHEGSTVEKTVAPAECS
chain 2: B11 chain 2

The first experiment deals with T1, Placenta Growth Factor (PlGF), human. Briefly: ELISA.
The molecule B1 showed an EC50 of 0.196 nM.
Regarding B2, a half-maximal response (EC50) required 0.188 nM.
Take B3: the response was half-maximal at 0.139 nM (EC50).
In the case of B4, a half-maximal effect (EC50) was put at 0.128 nM.
B5 showed an EC50 of 0.135 nM.
The molecule B6 registered an EC50 of 0.196 nM.
B7 gave an EC50 of 0.163 nM.
The molecule B8 displayed an EC50 of 0.16 nM.
Turning to B9, a half-maximal effect (EC50) was put at 0.056 nM.
B10 came in with an EC50 of 0.049 nM.
The same measure, in the same setting: the figure for B11 is 0.181 nM; for B12 it is 0.085 nM.
Molecule B13 registered an EC50 of 0.248 nM.

In the next experiment the target is Hepatocyte Growth Factor (HGF), human (human, UniProt P14210 32-728). The experiment is described as follows: ELISA. On the technique in general: In an ELISA, binding on a coated surface is turned into a signal by an enzyme label.
Hepatocyte Growth Factor (HGF), human, sequence (P14210 32-728): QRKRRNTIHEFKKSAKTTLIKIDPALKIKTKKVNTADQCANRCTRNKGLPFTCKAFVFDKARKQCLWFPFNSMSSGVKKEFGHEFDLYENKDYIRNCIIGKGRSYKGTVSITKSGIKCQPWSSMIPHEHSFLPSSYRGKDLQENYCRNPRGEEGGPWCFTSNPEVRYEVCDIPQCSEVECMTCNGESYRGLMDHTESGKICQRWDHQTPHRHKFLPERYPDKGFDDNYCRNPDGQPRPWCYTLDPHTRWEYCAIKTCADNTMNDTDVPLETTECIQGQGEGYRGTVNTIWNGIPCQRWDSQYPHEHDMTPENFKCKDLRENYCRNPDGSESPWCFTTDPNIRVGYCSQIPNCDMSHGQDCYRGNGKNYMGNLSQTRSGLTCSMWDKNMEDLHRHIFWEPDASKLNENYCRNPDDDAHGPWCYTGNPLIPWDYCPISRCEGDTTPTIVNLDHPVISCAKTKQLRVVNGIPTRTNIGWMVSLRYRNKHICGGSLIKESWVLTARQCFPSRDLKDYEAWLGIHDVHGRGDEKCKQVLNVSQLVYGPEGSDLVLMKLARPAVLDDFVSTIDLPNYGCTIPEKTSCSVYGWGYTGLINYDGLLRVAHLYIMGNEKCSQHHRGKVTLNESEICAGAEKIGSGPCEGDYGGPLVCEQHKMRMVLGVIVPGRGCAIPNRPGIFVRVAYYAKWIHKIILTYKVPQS
Regarding B1, a half-maximal response (EC50) required 0.058 nM.
On the same count and under the same terms, the figure for B2 is 0.053 nM; for B3 it is 0.061 nM.
Same read-out and setting: as for B4, the figure is 0.061 nM; as for B5, 0.055 nM; as for B6, 0.071 nM.
The same measure, in the same setting: as for B7, the figure is 0.053 nM.
Turning to B8, the midpoint of the response, the EC50, lay at 0.069 nM.
The same measure, in the same setting: the figure for B9 is 0.059 nM.
For B10, the EC50 was 0.054 nM.
On the same count and under the same terms, the figure for B11 is 0.061 nM.
Take B12: the midpoint of the response, the EC50, lay at 0.058 nM.
Take B13: the EC50 was determined as 0.052 nM. The EC50 values of the last two molecules are within 1.5-fold of each other.

Values taken from patent publication US20150045540A1 (published 2015).
